Tests used:
[1] = molecular target: T1, Peptide_050 (human); assay: peptide microarray, head 0.08 ug (text 0.008 ug/mL)
T1 construct: 15-mer of hTrx1 on microarray
T1 peptide: GPCKMIKPFFHSLSE
Procedure: (§1) 5, 1, 0.2, 0.04, 0.008 and 0.0016 μg/mL serial dilutions were incubated on a single multi-well microarray slide at 30° C. for 1 hour. The slide includes 21 individual mini-arrays (one mini-array per sample dilution).
(§2) DyLight 650 was used as a label. False-positive binding to a peptide was evaluated by performing one additional control incubation in which only a secondary antibody was applied on the same microarray slide. Before performing each step, the microarrays were washed with a washing buffer.

[2] = molecular target: T2, Peptide_047 (human); assay: as above
T2 construct: 15-mer of hTrx1 on microarray
T2 peptide: TWCGPCKMIKPFFHS
Procedure: as §1, §2

[3] = molecular target: T3, Peptide_049 (human); assay: peptide microarray, 0.04 ug/mL
T3 construct: 15-mer of hTrx1 on microarray
T3 peptide: CGPCKMIKPFFHSLS
Procedure: as §1, §2

[4] = molecular target: T4, Peptide_057 (human); assay: peptide microarray, 0.04 ug/mL
T4 construct: 15-mer of hTrx1 on microarray
T4 peptide: PFFHSLSEKYSNVIF
Procedure: as §1, §2

[5] = molecular target: T5, Peptide_055 (human); assay: peptide microarray, 0.04 ug/mL
T5 construct: 15-mer of hTrx1 on microarray
T5 peptide: IKPFFHSLSEKYSNV
Procedure: as §1, §2

[6] = molecular target: T6, Peptide_056 (human); assay: peptide microarray, 0.04 ug/mL
T6 construct: 15-mer of hTrx1 on microarray
T6 peptide: KPFFHSLSEKYSNVI
Procedure: as §1, §2

[7] = molecular target: T7, Peptide_046 (human); assay: peptide microarray, 0.04 ug/mL
T7 construct: 15-mer of hTrx1 on microarray
T7 peptide: ATWCGPCKMIKPFFH
Procedure: as §1, §2

[8] = molecular target: T8, Peptide_054 (human); assay: peptide microarray, 0.04 ug/mL
T8 construct: 15-mer of hTrx1 on microarray
T8 peptide: MIKPFFHSLSEKYSN
Procedure: as §1, §2

[9] = molecular target: T9, Peptide_052 (human); assay: peptide microarray, 0.04 ug/mL
T9 construct: 15-mer of hTrx1 on microarray
T9 peptide: CKMIKPFFHSLSEKY
Procedure: as §1, §2

[10] = molecular target: T1, Peptide_050; assay: peptide microarray, 0.04 ug/mL
Procedure: as §1, §2

[11] = molecular target: T10, Peptide_053 (human); assay: peptide microarray, 0.04 ug/mL
T10 construct: 15-mer of hTrx1 on microarray
T10 peptide: KMIKPFFHSLSEKYS
Procedure: as §1, §2

[12] = molecular target: T2, Peptide_047; assay: peptide microarray, 0.04 ug/mL
Procedure: as §1, §2

[13] = molecular target: T11, Peptide_048 (human); assay: peptide microarray, 0.04 ug/mL
T11 construct: 15-mer of hTrx1 on microarray
T11 peptide: WCGPCKMIKPFFHSL
Procedure: as §1, §2

[14] = molecular target: T3, Peptide_049; assay: peptide microarray, 0.2 ug/mL
Procedure: as §1, §2

[15] = molecular target: T4, Peptide_057; assay: peptide microarray, 0.2 ug/mL
Procedure: as §1, §2

[16] = molecular target: T5, Peptide_055; assay: peptide microarray, 0.2 ug/mL
Procedure: as §1, §2

[17] = molecular target: T6, Peptide_056; assay: peptide microarray, 0.2 ug/mL
Procedure: as §1, §2

[18] = molecular target: T7, Peptide_046; assay: peptide microarray, 0.2 ug/mL
Procedure: as §1, §2

[19] = molecular target: T8, Peptide_054; assay: peptide microarray, 0.2 ug/mL
Procedure: as §1, §2

[20] = molecular target: T9, Peptide_052; assay: peptide microarray, 0.2 ug/mL
Procedure: as §1, §2

[21] = molecular target: T1, Peptide_050; assay: peptide microarray, 0.2 ug/mL
Procedure: as §1, §2

[22] = molecular target: T10, Peptide_053; assay: peptide microarray, 0.2 ug/mL
Procedure: as §1, §2

[23] = molecular target: T2, Peptide_047; assay: peptide microarray, 0.2 ug/mL
Procedure: as §1, §2

[24] = molecular target: T11, Peptide_048; assay: peptide microarray, 0.2 ug/mL
Procedure: as §1, §2

[25] = molecular target: T3, Peptide_049; assay: peptide microarray, 1 ug/mL
Procedure: as §1, §2

[26] = molecular target: T4, Peptide_057; assay: peptide microarray, 1 ug/mL
Procedure: as §1, §2

[27] = molecular target: T5, Peptide_055; assay: peptide microarray, 1 ug/mL
Procedure: as §1, §2

[28] = molecular target: T6, Peptide_056; assay: peptide microarray, 1 ug/mL
Procedure: as §1, §2

[29] = molecular target: T7, Peptide_046; assay: peptide microarray, 1 ug/mL
Procedure: as §1, §2

[30] = molecular target: T8, Peptide_054; assay: peptide microarray, 1 ug/mL
Procedure: as §1, §2

[31] = molecular target: T9, Peptide_052; assay: peptide microarray, 1 ug/mL
Procedure: as §1, §2

[32] = molecular target: T1, Peptide_050; assay: peptide microarray, 1 ug/mL
Procedure: as §1, §2

[33] = molecular target: T10, Peptide_053; assay: peptide microarray, 1 ug/mL
Procedure: as §1, §2

[34] = molecular target: T2, Peptide_047; assay: peptide microarray, 1 ug/mL
Procedure: as §1, §2

[35] = molecular target: T11, Peptide_048; assay: peptide microarray, 1 ug/mL
Procedure: as §1, §2

[36] = molecular target: T3, Peptide_049; assay: peptide microarray, 5 ug/mL
Procedure: as §1, §2

[37] = molecular target: T4, Peptide_057; assay: peptide microarray, 5 ug/mL
Procedure: as §1, §2

[38] = molecular target: T5, Peptide_055; assay: peptide microarray, 5 ug/mL
Procedure: as §1, §2

[39] = molecular target: T6, Peptide_056; assay: peptide microarray, 5 ug/mL
Procedure: as §1, §2

[40] = molecular target: T7, Peptide_046; assay: peptide microarray, 5 ug/mL
Procedure: as §1, §2

[41] = molecular target: T8, Peptide_054; assay: peptide microarray, 5 ug/mL
Procedure: as §1, §2

[42] = molecular target: T9, Peptide_052; assay: peptide microarray, 5 ug/mL
Procedure: as §1, §2

[43] = molecular target: T1, Peptide_050; assay: peptide microarray, 5 ug/mL
Procedure: as §1, §2

[44] = molecular target: T10, Peptide_053; assay: peptide microarray, 5 ug/mL
Procedure: as §1, §2

[45] = molecular target: T2, Peptide_047; assay: peptide microarray, 5 ug/mL
Procedure: as §1, §2

[46] = molecular target: T11, Peptide_048; assay: peptide microarray, 5 ug/mL
Procedure: as §1, §2

B1: monoclonal antibody B266-1 (antibody, human IgG1)
light: QIVLTQSPAIMSASPGEKVTMTCSASSRISYMYWYQQKPGTSPKRWIYDTSKLASGVPARFSGSGSGTSYSLTISTMEAEDAATYYCHQRSSYPTFGAGTKLELKSVAAPSVFIFPPSDEQLKSGTASVVCLLNNFYPREAKVQWKVDNALQSGNSQESVTEQDSKDSTYSLSSTLTLSKADYEKHKVYACEVTHQGLSSPVTKSFNRGEC
heavy: not shown
notes: B266 with the Fc part changed to human IgG1; also called B266-1 (Trx1-hIgG1); B266-1 (hTrx1-hIgG1)
signal (blank-control = 1) [1]: 0.52 | signal (blank-control = 1) [2]: 1.11 | signal (blank-control = 1) [3]: 1.51 | signal (blank-control = 1) [4]: 1.87 | signal (blank-control = 1) [5]: 1.41 | signal (blank-control = 1) [6]: 1.11 | signal (blank-control = 1) [7]: 1.96 | signal (blank-control = 1) [8]: 0.71 | signal (blank-control = 1) [9]: 1.23 | signal (blank-control = 1) [10]: 0.68 | signal (blank-control = 1) [11]: 1.35 | signal (blank-control = 1) [12]: 1.5 | signal (blank-control = 1) [13]: 6.57 | signal (blank-control = 1) [14]: 1.45 | signal (blank-control = 1) [15]: 1.94 | signal (blank-control = 1) [16]: 1.04 | signal (blank-control = 1) [17]: 1.24 | signal (blank-control = 1) [18]: 2 | signal (blank-control = 1) [19]: 0.84 | signal (blank-control = 1) [20]: 1.38 | signal (blank-control = 1) [21]: 0.65 | signal (blank-control = 1) [22]: 1.66 | signal (blank-control = 1) [23]: 1.58 | signal (blank-control = 1) [24]: 5.99 | signal (blank-control = 1) [25]: 1.96 | signal (blank-control = 1) [26]: 2.07 | signal (blank-control = 1) [27]: 1.38 | signal (blank-control = 1) [28]: 1.84 | signal (blank-control = 1) [29]: 3.18 | signal (blank-control = 1) [30]: 1.15 | signal (blank-control = 1) [31]: 2.38 | signal (blank-control = 1) [32]: 1.09 | signal (blank-control = 1) [33]: 2.13 | signal (blank-control = 1) [34]: 2.25 | signal (blank-control = 1) [35]: 6 | signal (blank-control = 1) [36]: 2.89 | signal (blank-control = 1) [37]: 2.39 | signal (blank-control = 1) [38]: 2.08 | signal (blank-control = 1) [39]: 2.89 | signal (blank-control = 1) [40]: 6.41 | signal (blank-control = 1) [41]: 2.36 | signal (blank-control = 1) [42]: 3.84 | signal (blank-control = 1) [43]: 2.19 | signal (blank-control = 1) [44]: 2.45 | signal (blank-control = 1) [45]: 5.58 | signal (blank-control = 1) [46]: 6.1

B2: monoclonal antibody B264 (antibody, mouse IgG1, kappa, V domains shown)
VH: QVQLQQSGAELARPGASVKMSCKASGYTFTSYTMHWVKQRPGQGLEWIGYINPTSDYTNYNQKFKDKATLTADKSSSTAYMQLSSLTSEDSAVYFCASEGGFLYYFDYWGQGTTLTVSS
VL: DVLMTQTPLSLPVSLGDQASISCRSSQSIVHSNGNTYLEWYLQKPGQSPKLLIYKVSNRFSGVPDRFSGSGSGTDFTLKISRVEAEDLGVYYCFQGSHVPYTFGGGTKLEIKR
notes: also called AB264; B264 (Trx1-mIgG1)
signal (blank-control = 1) [1]: 0.65 | signal (blank-control = 1) [2]: 1.52 | signal (blank-control = 1) [3]: 1.48 | signal (blank-control = 1) [4]: 2.15 | signal (blank-control = 1) [5]: 1.51 | signal (blank-control = 1) [6]: 1.35 | signal (blank-control = 1) [7]: 2.87 | signal (blank-control = 1) [8]: 0.99 | signal (blank-control = 1) [9]: 2.02 | signal (blank-control = 1) [10]: 0.64 | signal (blank-control = 1) [11]: 2.54 | signal (blank-control = 1) [12]: 1.97 | signal (blank-control = 1) [13]: 6.34 | signal (blank-control = 1) [14]: 1.34 | signal (blank-control = 1) [15]: 2.08 | signal (blank-control = 1) [16]: 2.21 | signal (blank-control = 1) [17]: 1.72 | signal (blank-control = 1) [18]: 3.44 | signal (blank-control = 1) [19]: 0.89 | signal (blank-control = 1) [20]: 2.56 | signal (blank-control = 1) [21]: 0.46 | signal (blank-control = 1) [22]: 4.75 | signal (blank-control = 1) [23]: 2.52 | signal (blank-control = 1) [24]: 4.61 | signal (blank-control = 1) [25]: 1.2 | signal (blank-control = 1) [26]: 2.19 | signal (blank-control = 1) [27]: 3.26 | signal (blank-control = 1) [28]: 2.58 | signal (blank-control = 1) [29]: 5.62 | signal (blank-control = 1) [30]: 1.43 | signal (blank-control = 1) [31]: 4.43 | signal (blank-control = 1) [32]: 0.47 | signal (blank-control = 1) [33]: 8.52 | signal (blank-control = 1) [34]: 4.07 | signal (blank-control = 1) [35]: 3.91 | signal (blank-control = 1) [36]: 1.11 | signal (blank-control = 1) [37]: 2.44 | signal (blank-control = 1) [38]: 3.57 | signal (blank-control = 1) [39]: 2.86 | signal (blank-control = 1) [40]: 6.2 | signal (blank-control = 1) [41]: 1.46 | signal (blank-control = 1) [42]: 5.14 | signal (blank-control = 1) [43]: 0.54 | signal (blank-control = 1) [44]: 6.49 | signal (blank-control = 1) [45]: 4.89 | signal (blank-control = 1) [46]: 2.15

Source: patent publication US20240192215A1 (E AND S HEALTHCARE, published 2024)
